In this test the target is T1, TFEB (purified protein coupled to the SPR chip) (UniProt P19484 1-476).
T1 chain: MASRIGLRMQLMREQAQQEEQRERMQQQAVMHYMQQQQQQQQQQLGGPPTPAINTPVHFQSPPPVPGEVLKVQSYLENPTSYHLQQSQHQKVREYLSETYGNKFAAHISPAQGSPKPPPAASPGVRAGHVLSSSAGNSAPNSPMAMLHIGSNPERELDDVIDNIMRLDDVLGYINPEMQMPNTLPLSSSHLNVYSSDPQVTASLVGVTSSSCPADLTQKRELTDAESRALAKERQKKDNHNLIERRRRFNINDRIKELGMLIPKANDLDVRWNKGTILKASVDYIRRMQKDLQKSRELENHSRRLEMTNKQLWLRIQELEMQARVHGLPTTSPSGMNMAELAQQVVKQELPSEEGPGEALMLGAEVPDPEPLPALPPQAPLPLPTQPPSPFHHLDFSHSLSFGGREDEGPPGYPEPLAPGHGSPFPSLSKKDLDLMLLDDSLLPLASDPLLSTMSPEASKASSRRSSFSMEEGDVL
Briefly: SPR; TFEB immobilised on a CM5 chip by amine coupling; ROCK1 injected at 312.5 to 5000 nM for 90 s; Biacore T200. As to conditions: both partners purified. (In general: In SPR one partner is held on a chip, and binding of the other changes the refractive index at the surface.)

As usually defined, the Kd is the constant that tells how readily two partners part at equilibrium.

B1: ROCK1 (protein injected in SPR) (enzyme)
chain: STGDSFETRFEKMDNLLRDPKSEVNSDCLLDGLDALVYDLDFPALRKNKNIDNFLSRYKDTINKIRDLRMKAEDYEVVKVIGRGAFGEVQLVRHKSTRKVYAMKLLSKFEMIKRSDSAFFWEERDIMAFANSPWVVQLFYAFQDDRYLYMVMEYMPGGDLVNLMSNYDVPEKWARFYTAEVVLALDAIHSMGFIHRDVKPDNMLLDKSGHLKLADFGTCMKMNKEGMVRCDTAVGTPDYISPEVLKSQGGDGYYGRECDWWSVGVFLYEMLVGDTPFYADSLVGTYSKIMNHKNSLTFPDDNDISKEAKNLICAFLTDREVRLGRNGVEEIKRHLFFKNDQWAWETLRDTVAPVVPDLSSDIDTSNFDDLEEDKGEEETFPIPKAFVGNQLPFVGFTYYSNRRYLSSANPNDNRTSSNADKSLQESLQKTIYKLEEQLHNEMQLKDEMEQKCRTSNIKLDKIMKELDEEGNQRRNLESTVSQIEKEKMLLQHRINEYQRKAEQENEKRRNVENEVSTLKDQLEDLKKVSQNSQLANEKLSQLQKQLEEANDLLRTESDTAVRLRKSHTEMSKSISQLESLNRELQERNRILENSKSQTDKDYYQLQAILEAERRDRGHDSEMIGDLQARITSLQEEVKHLKHNLEKVEGERKEAQDMLNHSEKEKNNLEIDLNYKLKSLQQRLEQEVNEHKVTKARLTDKHQSIEEAKSVAMCEMEKKLKEEREAREKAENRVVQIEKQCSMLDVDLKQSQQKLEHLTGNKERMEDEVKNLTLQLEQESNKRLLLQNELKTQAFEADNLKGLEKQMKQEINTLLEAKRLLEFELAQLTKQYRGNEGQMRELQDQLEAEQYFSTLYKTQVKELKEEIEEKNRENLKKIQELQNEKETLATQLDLAETKAESEQLARGLLEEQYFELTQESKKAASRNRQEITDKDHTVSRLEEANSMLTKDIEILRRENEELTEKMKKAEEEYKLEKEEEISNLKAAFEKNINTERTLKTQAVNKLAEIMNRKDFKIDRKKANTQDLRKKEKENRKLQLELNQEREKFNQMVVKHQKELNDMQAQLVEECAHRNELQMQLASKESDIEQLRAKLLDLSDSTSVASFPSADETDGNLPESRIEGWLSVPNRGNIKRYGWKKQYVVVSSKKILFYNDEQDKEQSNPSMVLDIDKLFHVRPVTQGDVYRAETEEIPKIFQILYANEGECRKDVEMEPVQQAEKTNFQNHKGHEFIPTLYHFPANCDACAKPLWHVFKPPPALECRRCHVKCHRDHLDKKEDLICPCKVSYDVTSARDMLLLACSQDEQKKWVTHLVKKIPKNPPSGFVRASPRTLSTRSTANQSFRKVVKNTSGKTS
For B1, binding was put at a Kd of 1610 nM. This counts as single-digit micromolar.

These data come from article PMC11533276, “Critical role of ROCK1 in AD pathogenesis via controlling lysosomal biogenesis and acidification” (Translational Neurodegeneration, 2024).
